Results published in publication PMC4084651 (DNA repair, 2013).
Numbering of substitutions follows the chain as printed. Read-outs that look alike come from different tables or passages of the source. Values belong to the molecule of their own block, whether it stands above or below them.

How the values were obtained:
SsoRadA [1] = molecular target: T1, SsoRadA (Saccharolobus solfataricus, UniProt Q55075); assay: filter binding, saturation binding curve
T1 sequence (Q55075 1-324): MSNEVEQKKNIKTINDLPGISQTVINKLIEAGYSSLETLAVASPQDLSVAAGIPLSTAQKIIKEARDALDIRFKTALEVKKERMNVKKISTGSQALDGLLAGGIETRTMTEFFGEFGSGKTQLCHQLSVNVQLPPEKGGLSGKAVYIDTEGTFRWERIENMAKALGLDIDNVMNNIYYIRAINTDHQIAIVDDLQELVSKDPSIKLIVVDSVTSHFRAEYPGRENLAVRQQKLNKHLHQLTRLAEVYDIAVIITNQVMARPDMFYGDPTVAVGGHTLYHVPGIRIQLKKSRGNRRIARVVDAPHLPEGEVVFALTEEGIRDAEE

SsoRadA [2] = molecular target: SsoRadA (Saccharolobus solfataricus, UniProt Q55075, K120R); assay: filter binding, saturation binding curve
SsoRadA K120A [3] = molecular target: T2, SsoRadA K120A (Sulfolobus solfataricus, UniProt Q55075 1-324, K120A); assay: EMSA
T2 sequence: T1 sequence (Q55075 1-324) with K120A

SsoRadA [4] = molecular target: T3, SsoRadA (Sulfolobus solfataricus, UniProt Q55075 1-324); assay: EMSA
T3 sequence: T1 sequence (Q55075 1-324)

SsoRadA [5] = molecular target: T3, SsoRadA; assay: EMSA; remark: listed apart in the source
SsoRadA K120A [6] = molecular target: T2, SsoRadA K120A; assay: EMSA; remark: listed apart in the source
SsoRadA K120R = molecular target: T4, SsoRadA K120R (Sulfolobus solfataricus, UniProt Q55075 1-324, K120R); assay: EMSA
T4 sequence: T1 sequence (Q55075 1-324) with K120R

Chain of SsoRadA (Saccharolobus solfataricus, UniProt Q55075, K120R) (Q55075 whole entry K120R): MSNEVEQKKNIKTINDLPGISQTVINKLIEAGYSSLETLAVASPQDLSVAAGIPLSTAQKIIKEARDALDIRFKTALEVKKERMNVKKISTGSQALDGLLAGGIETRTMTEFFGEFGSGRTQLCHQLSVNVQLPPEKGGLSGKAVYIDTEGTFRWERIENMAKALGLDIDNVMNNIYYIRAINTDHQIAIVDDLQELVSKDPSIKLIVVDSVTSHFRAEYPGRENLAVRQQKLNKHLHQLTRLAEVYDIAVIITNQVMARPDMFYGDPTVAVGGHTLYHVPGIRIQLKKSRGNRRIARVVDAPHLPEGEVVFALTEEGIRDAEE

- Kd (SsoRadA [1]): 2400 ± 600 nM
- Kd (SsoRadA [2]): 59.4 ± 9.4 µM
Molecule: Nc1ncnc2c1ncn2[C@@H]1O[C@H](COP(=O)(O)OP(=O)(O)OP(=O)(O)O)[C@@H](O)[C@H]1O [ATP]

B1: 63-mer ssDNA (ssDNA)
DNA: ACAGCACCAATGAAATCTATTAAGCTCCTCATCGTCCGCAAAAATATCGTCACCTCAAAAGGA
- binding result (SsoRadA K120A [3]): binds
- binding result (SsoRadA [4]): binds

B2: 63-mer dsDNA (dsDNA)
DNA 1: B1 DNA
DNA 2: TCCTTTTGAGGTGACGATATTTTTGCGGACGATGAGGAGCTTAATAGATTTCATTGGTGCTGT
- binding result (SsoRadA [5]): no binding
- binding result (SsoRadA K120A [6]): no binding
- binding result (SsoRadA K120R): no binding
